The results in this text go back to patent US20260092093A1.

In experiment [1] the target is T1, hIL-18 receptor (hIL-18Rα and hIL-18Rβ) (human) (UniProt Q13478).
T1 sequence (looked up) 1: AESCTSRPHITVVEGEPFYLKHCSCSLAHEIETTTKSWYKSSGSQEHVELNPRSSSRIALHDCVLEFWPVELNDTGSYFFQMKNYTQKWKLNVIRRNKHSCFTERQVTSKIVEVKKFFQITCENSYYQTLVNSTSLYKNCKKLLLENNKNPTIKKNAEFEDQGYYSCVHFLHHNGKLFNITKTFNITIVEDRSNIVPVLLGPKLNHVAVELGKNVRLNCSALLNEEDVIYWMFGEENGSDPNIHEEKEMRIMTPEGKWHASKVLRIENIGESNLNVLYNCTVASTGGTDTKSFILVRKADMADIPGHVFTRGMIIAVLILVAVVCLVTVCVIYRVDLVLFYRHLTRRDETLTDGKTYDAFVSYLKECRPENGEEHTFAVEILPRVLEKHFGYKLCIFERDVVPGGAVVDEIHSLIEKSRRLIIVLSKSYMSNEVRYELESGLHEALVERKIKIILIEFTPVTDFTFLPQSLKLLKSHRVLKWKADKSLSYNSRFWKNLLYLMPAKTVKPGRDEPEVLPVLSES
T1 sequence (looked up) 2: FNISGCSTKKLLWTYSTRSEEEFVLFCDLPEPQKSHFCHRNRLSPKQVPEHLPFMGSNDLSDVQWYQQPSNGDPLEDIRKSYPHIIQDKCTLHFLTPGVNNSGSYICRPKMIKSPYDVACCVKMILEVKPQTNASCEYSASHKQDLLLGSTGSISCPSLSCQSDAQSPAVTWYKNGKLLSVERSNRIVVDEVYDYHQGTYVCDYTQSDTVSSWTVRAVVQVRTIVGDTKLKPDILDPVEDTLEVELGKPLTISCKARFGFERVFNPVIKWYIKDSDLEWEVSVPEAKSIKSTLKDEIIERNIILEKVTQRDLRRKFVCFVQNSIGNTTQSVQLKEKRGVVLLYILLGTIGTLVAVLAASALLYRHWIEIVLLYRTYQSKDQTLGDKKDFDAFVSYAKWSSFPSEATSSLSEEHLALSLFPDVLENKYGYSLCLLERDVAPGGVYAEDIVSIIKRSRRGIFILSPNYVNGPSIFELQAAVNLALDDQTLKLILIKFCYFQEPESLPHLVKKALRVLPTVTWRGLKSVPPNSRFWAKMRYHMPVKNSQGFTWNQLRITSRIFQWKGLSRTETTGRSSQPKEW
In words: cell-based or functional assay.

A further experiment addresses hIL-18BP-hFc (human) (UniProt O95998). Put plainly: cell-based or functional assay.

hIL-18BP-hFc (human), sequence (O95998 31-194 limits assumed): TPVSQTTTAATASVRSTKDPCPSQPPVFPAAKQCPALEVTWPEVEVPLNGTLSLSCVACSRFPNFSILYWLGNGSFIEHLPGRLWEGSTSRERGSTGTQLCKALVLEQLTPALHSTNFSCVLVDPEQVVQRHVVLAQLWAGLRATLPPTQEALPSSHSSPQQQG
wild-type human IL-18, sequence (Q14116 37-193 limits assumed): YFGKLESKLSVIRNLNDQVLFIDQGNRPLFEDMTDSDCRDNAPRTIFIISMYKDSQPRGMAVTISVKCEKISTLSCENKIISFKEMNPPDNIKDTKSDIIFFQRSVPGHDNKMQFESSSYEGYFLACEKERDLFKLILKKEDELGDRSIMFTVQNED

Turning to “wild-type human IL-18 (from UniProt Q14116 37-193) (ligand)”, in experiment [1], the EC50 (nM), PBMC assay (hIFNγ release) turned out to be 0.17 nM and the EC50 (nM), in vitro IL-18 Receptor Mediated Signaling Assay is 0.066 nM. Moreover, in the experiment with hIL-18BP-hFc (human), the EC50 (nM) + 1 µg/ml hIL-18BP-hFc, in vitro IL-18 Receptor Mediated Signaling Assay amounted to 8.2 nM; the EC50 (nM) in the Presence of 1 µg/mL hIL-18BP-hFc, PBMC assay (hIFNγ release) turned out to be 5.9 nM; the EC50 Fold Change (+BP/-BP), PBMC assay (hIFNγ release) was determined as 34.7 fold; the EC50 Fold Change (+BP/-BP), hIL-18 reporter assay is 83.3 fold.
